Results published in article PMC6317306.

Target: FLAG-Cep85-6D (UniProt Q6P2H3)
Assay: co-IP

Binder	percent reduction of affinity against Nek2A-4A
HA-Nek2A (enzyme) MPSRAEDYEVLYTIGTGSYGRCQKIRRKSDGKILVWKELDYGSMTEAEKQMLVSEVNLLRELKHPNIVRYYDRIIDRTNTTLYIVMEYCEGGDLASVITKGTKERQYLDEEFVLRVMTQLTLALKECHRRSDGGHTVLHRDLKPANVFLDGKQNVKLGDFGLARILNHDTSFAKTFVGTPYYMSPEQMNRMSYNEKSDIWSLGCLLYELCALMPPFTAFSQKELAGKIREGKFRRIPYRYSDELNEIITRMLNLKDYHRPSVEEILENPLIADLVADEQRRNLERRGRQLGEPEKSQDSSPVLSELKLKEIQLQERERALKAREERLEQKEQELCVRERLAEDKLARAENLLKNYSLLKERKFLSLASNPELLNLPSSVIKKKVHFSGESKENIMRSENSESQLTSKSKCKDLKKRLHAAQLRAQALSDIEKNYQLKSRQILGMR	50%
HA-Nek2A-4D (enzyme) MPSRAEDYEVLYTIGTGSYGRCQKIRRKSDGKILVWKELDYGSMTEAEKQMLVSEVNLLRELKHPNIVRYYDRIIDRTNTTLYIVMEYCEGGDLASVITKGTKERQYLDEEFVLRVMTQLTLALKECHRRSDGGHTVLHRDLKPANVFLDGKQNVKLGDFGLARILNHDTSFAKTFVGTPYYMSPEQMNRMSYNEKSDIWSLGCLLYELCALMPPFTAFSQKELAGKIREGKFRRIPYRYSDELNEIITRMLNLKDYHRPSVEEILENPLIADLVADEQRRNLERRGRQLGEPEKSQDSSPVLSELKLKEIQLQERERALKAREERLEQKEQELCVRERLAEDKLARAENLLKNYDLLKERKFLDLASNPELLNLPSSVIKKKVHFSGESKENIMRSENSESQLTDKSKCKDLKKRLHAAQLRAQALSDIEKNYQLKDRQILGMR	> 60%
